In article PMC5461540, “MOB1 Mediated Phospho-recognition in the Core Mammalian Hippo Pathway * ^([image sbox.jpg])” (Molecular & Cellular Proteomics : MCP, 2017):
Where no end group is shown, it is not given here.

T1: MOB1A wild-type (human, UniProt Q9H8S9-1 2-216)
T1 construct: also called MOB1A WT; full-length nonphosphorylated human MOB1A; source: E. coli BL21 (DE3) CodonPlus RIL, purified (glutathione-Sepharose, TEV cleavage, subtractive IMAC, SEC); not shown: His6, N-terminal, cleaved; GST, N-terminal, cleaved
T1 sequence (looked up): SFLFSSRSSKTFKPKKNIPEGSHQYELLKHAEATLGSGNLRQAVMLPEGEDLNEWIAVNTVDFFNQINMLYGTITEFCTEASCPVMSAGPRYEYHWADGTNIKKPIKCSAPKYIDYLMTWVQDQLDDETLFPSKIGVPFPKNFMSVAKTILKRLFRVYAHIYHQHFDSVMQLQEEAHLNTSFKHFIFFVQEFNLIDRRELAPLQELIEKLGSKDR


Biological target: T1, MOB1A wild-type
Assay: crystal structure; MOB1A mixed with MST1 phosphopeptide at 1:1.5 mole ratio; hanging drops, 0.1 M MES pH 6.0, 0.2 M LiCl, 20% PEG 6000
Conditions: both partners purified

| binding result | Binder |
| --- | --- |
| binds | VASTMTDGANTMIEH (also: phosphothreonine at 353 (place in peptide not given here), MST1 (STK4), human, 15-mer encompassing pT353; also called MST1-pT353 peptide; source: synthetic peptide, bought: Biomatik) [MST1 pT353 phosphopeptide (15-mer, crystallization)] |
| binds | DDTLPSQLGTMVINA (also: phosphothreonine at 367 (place in peptide not given here), MST1 (STK4), human, 15-mer encompassing pT367; also called MST1-pT367 peptide; source: synthetic peptide, bought: Biomatik) [MST1 pT367 phosphopeptide (15-mer, crystallization)] |
